The values that follow come from article PMC8752837, “Structural basis of BAK activation in mitochondrial apoptosis initiation” (Nature Communications, 2022).

Common to all, as to assay type: cell-based, human
Experiment [1] deals with bak−/− bax−/− HCT116 cells. Put plainly: Apoptosis initiated by actinomycin D and TRAIL + CHX in cells constitutively expressing BAK. Particulars: constitutive pMX-BAK-IRES-GFP. The text has this: We enriched for GFP positive cell populations by up to four rounds of sorting. Cells were used in apoptosis assays. […]
and doxycycline (Dox)-inducible mC-BAK. d, Representative i mmunoblot for BID and sypro red staining of BCL2allKO HCT116 cells expressing V74A and D83A mC-BAK and BID from n=2 independent experiments. e, Representative immunoblot of bak-/- bax- […]
from n=2 independent experiments . GFP positive cells were sorted three and four times to achieve similar expression levels. […]
human TRAIL and cycloheximide (CHX).
Data are presented as mean + SD for one representative of n=2 experiments each of n=3 technical replicates. g, Experimental […]
BAK (mC-BAK) monitored for 48 hr by IncuCyte imaging uptake of cell-impermeable dye SYTOX Green. AUC for kinetic traces is included. At 48 hr, we quantified percentage of SYTOX Green +ve cells (%) by fluorescence activated cell sorting (FACS). Data are presented as mean + SD from one of n=3 experiments each of n=3

The test system of experiment [2] is BCL2allKO HCT116 cells reconstituted with mC-BAK. In words: Endpoint FACS analysis of SYTOX Green positive cells. Particulars: average, N = 3. The method, then:
(§1) We seeded cells in 24-well (100,000 cells/well), 96-well (15,000 cells/well), or 384-well (10,000 cells/well) plates coated with 10 µg/mL fibronectin. After ≥24 h of attachment and recovery, we induced cell death with Dox (up to 1000 ng/mL) and monitored SYTOX Green (25 nM) uptake by Incucyte imaging. This dye marks cells with compromised plasma membrane integrity. mC-BAK expressed before 24 h, which coincided with detectable cell death. We monitored Incucyte imaging for up to 48 h, followed by endpoint FACS analysis to measure the extent of cell death based on SYTOX Green positive cells on FACSCalibur systems (BD Biosciences). As expected, cells with low mCherry fluorescence were refractory to cell death.

Experiment [3] concerns BCL2allKO HCT116 cells reconstituted with Dox-inducible mC-BAK. In words: Dox-induced cell death by IncuCyte imaging of SYTOX Green uptake (autoactivation). Particulars: for SYTOX Green +ve counts/confluence AUC of kinetic traces: Fig 3d; for AUC (48 hr) of SYTOX Green counts/confluence: mC-BAK BCL2allKO HCT116 + Dox + qVD, average, N = 3.
Description: For mammalian cell culture experiments, we cloned the full length human BAK cDNA into pCR 2.1 TOPO vector, mutated BAK as needed, and PCR amplified the BAK gene for cloning into the BamHI and NotI sites of pRETROX mCherry vector for retroviral transduction. Amplification and mutagenesis primers are included in Supplementary Table 4. To test direct BAK activation and BAK autoactivation in cells, we produced cells stably expressing mCherry-human BAK (mC-BAK) ± human BID (BID) on a genetic background devoid of the entire BCL-2 family repertoire (all 17 BCL-2 genes), BCL2allKO HCT116, as described by the Xu Luo laboratory. We expressed WT and mutant mC-BAK using the doxycycline (Dox)-based inducible Tet-On 3G retroviral system from the pRetroX-TRE3G-Puro^R in BCL2allKO HCT116 cells expressing the Tet3G from pRetroX-Tet3G-Blast^R. We selected cells with puromycin (2.5 µg/mL) and blasticidin (2 µg/mL) starting at 2 days after retroviral transduction. To enrich for populations of cells that express mC-BAK, we treated cells with low Dox dose (25 ng/mL) and fluorescence-activated cell sorted (FACS) the mCherry positive cells. We performed the enrichment twice before cell death analysis. One caveat of our cellular system is tagging BAK with N-terminal mCherry, which may affect folding efficiency, degradation, and BAK interactome.
as §1

B1: V74A (1): BAK missense mutant, WT-like; in cells as mCherry fusion (protein)
chain: MASGQGPGPPRQECGEPALPSASEEQVAQDTEEVFRSYVFYRHQQEQEAEGVAAPADPEMVTLPLQPSSTMGQAGRQLAIIGDDINRRYDSEFQTMLQHLQPTAENAYEYFTKIATSLFESGINWGRVVALLGFGYRLALHVYQHGLTGFLGQVTRFVVDFMLHHCIARWIAQRGGWVAALNLGNG
modifications: left off: His6, C-terminal, kept
notes: BAK missense mutant, WT-like; in cells as mCherry fusion
As for B1, in experiment [1], the “response to apoptotic inducers actinomycin D and TRAIL + CHX” value is given as “respond similarly”. Further, the “flow cytometry SYTOX Green counts/confluence (48 hr)” value in experiment [2] (Dox 100 ng/mL) turned out to be 40.5; in experiment [2] (Dox 1000 ng/mL), 46.1667. The “SYTOX Green +ve counts/confluence AUC of kinetic traces” value (shortened to “SYTOX Green +ve counts/confluence AUC”) in experiment [3] (Dox 6.25 ng/mL) is 290.31; in experiment [3] (Dox 6.25 ng/mL + qVD), 201.143; in experiment [3] (Dox 12.5 ng/mL), 574.561; in experiment [3] (Dox 12.5 ng/mL + qVD) it was 218.508; in experiment [3] (Dox 25 ng/mL), 828.325; in experiment [3] (Dox 25 ng/mL + qVD), 220.818. The “SYTOX Green +ve counts/confluence AUC” value was determined as 1653.15 in experiment [3] (Dox 50 ng/mL); 333.116 in experiment [3] (Dox 50 ng/mL + qVD); 2313.65 in experiment [3] (Dox 100 ng/mL); 342.619 in experiment [3] (Dox 100 ng/mL + qVD); 2761.33 in experiment [3] (Dox 500 ng/mL); 584.364 in experiment [3] (Dox 500 ng/mL + qVD). For the same molecule, the “SYTOX Green +ve counts/confluence AUC” value in experiment [3] (Dox 1000 ng/mL) came out at 2775.53; in experiment [3] (Dox 1000 ng/mL + qVD) it was 699.139. Moreover, the Dox-induced cell death entry in experiment [3] (IncuCyte SYTOX Green up to 48 h) was “induces cell death faster than I81A(3) or D83A(s) irrespective of Dox dose”. Moreover, the results for the “AUC (48 hr) of SYTOX Green counts/confluence” value in experiment [3] (Dox 100 ng/mL) and in experiment [3] (Dox 1000 ng/mL) were 79832.2 and 98530.5, respectively.
